Series [1] can be described thus: Insulin association state by SEC-MALS. The class given is physicochemical. To be noted: for monomer / number average molecular weight (MW): zinc-free. From the text: Excipient choice is important, because as in the case of Apidra (glulisine), the absence of zinc is not sufficient to result in an ultra-fast acting insulin formulation. To engineer an insulin formulation that promotes the monomer state, the effects of excipients on insulin association state under zinc-free conditions must be understood. Characterization by size exclusion chromatography with multiple angle light scattering (SEC-MALS) allows us to determine insulin molecular weight in formulation and estimate the fraction of hexamers, dimers and monomers under formulation conditions. […] To select for a mostly monomeric insulin formulation, we evaluated the effect of tonicity agents and preservatives on insulin association state.
Number-averaged molecular weight (MW) and dispersity (Ð=Mw/Mn) of formulations were obtained using size exclusion chromatography (SEC) carried out using a Dionex Ultimate 3000 instrument (including pump, autosampler, and column compartment) outfitted with a Dawn Heleos II Multi Angle Ligh Scattering detector, and a Optilab rEX refractive index detector. The column was a Superose 6 Increase 10/300 GL from GE healthcare. Data was analyzed using Astra 6.0 software.
Controls consisted of either (v) commercial Humalog formulation comprising glycerol (1.6%), meta-cresol (0.315%), dibasic sodium phosphate (0.188%), and zinc (0.00197%), or (vi) commercial Novolog formulation comprising glycerol (1.6%), meta-cresol (0.172%), phenol (0.15%), sodium chloride (0.058%), dibasic sodium phosphate (0.125%), and zinc (0.00196%). Insulin lispro and aspart were injected at a concentration of a minimum […] protein and a volume of 100 μL. A do/dc of 0.186 mL/g was used for all samples.
The molar fraction of monomeric, dimeric and hexameric insulin was determined by fitting experimentally derived number-averaged (Mn) and weight-averaged (Mw) molecular weights determined by SEC-MALS to Equation 1 and Equation 2, where m, d and h, respectively, represent the molar fractions of monomeric, dimeric and hexameric insulin while I represents the molecular weight of monomeric insulin (5831 g/mol). The solver was constrained so that m+d+h=1 while m, d and h remain between 0 and 1.
For orientation: In gel filtration, larger molecules generally elute earlier.

The target in a further series is insulin aspart (Homo sapiens, UniProt P01308, P52D). Put plainly: Acridine orange dye displacement competitive binding assay. To be noted: unmodified CB[7], AO displacement, one-site competitive binding model; read-out: binding affinity. The method, then: Unmodified CB[7] was purchased from Strem Chemicals and Acridine Orange (AO) was purchased from Sigma-Aldrich. Binding of CB[7] to aspart was assessed using the AO dye displacement assay, as previously described. Briefly, 6 μM of CB[7] and 8 μM AO were combined with 100 μL of aspart samples. Aspart samples were diluted to concentrations of 0, 0.01, 0.1, 0.3, 0.5, 1, 1.5, 2, 3, 4 μm in H2O. Samples were incubated overnight in light-free conditions, and fluorescent spectra were collected on an BioTek SynergyH1 microplate reader, exciting at 485 nm and collecting the resulting fluorescent spectra from 495 to 650 nm. The decay in the peak of AO fluorescent signal was fit to a one-site competitive binding model (GraphPad Prism, version 6.0), using the CB[7]·AO equilibrium constant reported previously (Keq=2×10^5 M^−1), to determine binding constants of unmodified CB[7] to insulin.

For series [2] the following is noted: reported previously; cited from earlier work.
The target of series [3] is N-terminal phenylalanine on insulin (Homo sapiens, UniProt P01308). The series can be described thus: Host-guest binding of CB[7]-PEG to insulin. The method, then:
Referring to FIGS. 1A and 1B, existing insulin formulations contain a mixture of hexamers, dimers and monomers, which, upon subcutaneous injection, dissociate and are absorbed at different rates, shown diagrammatically in FIG. 1A. Non-covalent PEGylation is enabled by the strong specific binding between CB[7]-PEG and the N-terminal phenylalanine on insulin (KD=0.5 μM). Under high concentrations in formulation insulin will be greater than 98% bound, but after dilution upon subcutaneous injection less than 1% of CB[7]-PEG will remain associated with insulin. This differential absorption results in the rapid onset but long duration of action of these formulations, as indicated in the activity curve in FIG. 1B. […] The formulations described herein are directed to this objective.

[4] abbreviates: phosphate buffer (pH=7.4), glycerol (2.6%).
Where [5] appears, read: phosphate buffer (pH=7.4), sodium chloride (0.9%).
Where [6] appears, read: phosphate buffer, glycerol (2.6%) and meta-cresol (0.315%).
[7] abbreviates: phosphate buffer, glycerol (2.6%) and phenoxyethanol (0.85%).

As to “Zinc free insulin: zinc free insulin in pure water”, the association state result in series [1] (in pure water) was “completely monomeric”.

As for cucurbit[7]uril [CB[7]], the Kd at insulin aspart worked out at 540 nM. The Keq in series [2] was 200000 M⁻¹.

The substance “cucurbit[7]uril-poly(ethylene glycol) [CB[7]-PEG]” yielded a Kd in series [3] of 500 nM. For the same substance, the “CB[7]-PEG remaining associated with insulin” value in series [3] (after dilution following subcutaneous administration) is reported as “less than 1%”. Further, in series [3] (typical (high) formulation concentrations), the “fraction bound (CB[7]-PEG/insulin complex)” value is “greater than 98%”.

For insulin aspart, the monomer in series [1] (setting [4]) is on record as 91.4%; in series [1] (setting [5]) it was 4.8%; in series [1] (setting [6]), 71.0%; in series [1] (setting [7]) it was 85.2%. Besides, the “number average molecular weight (MW)” value is reported as 7.4 kDa in series [1] (setting [4]), 13 kDa in series [1] (setting [5]), 9.4 kDa in series [1] (setting [6]) and 7.4 kDa in series [1] (setting [7]).

Turning to insulin lispro, the monomer in series [1] (setting [4]) is reported as 89.2%; in series [1] (setting [5]), 55.0%; in series [1] (setting [6]) it was 56.7%; in series [1] (setting [7]), 71.5%. Also, the “number average molecular weight (MW)” value in series [1] (setting [4]) came out at 7.6 kDa; in series [1] (setting [5]), 8.7 kDa; in series [1] (setting [6]), 9.0 kDa; in series [1] (setting [7]) it was 8.2 kDa.

Values taken from patent publication US20230001013A1, “STABLE MONOMERIC INSULIN FORMULATIONS ENABLED BY SUPRAMOLECULAR PEGYLATION OF INSULIN ANALOGUES” (THE BOARD OF TRUSTEES OF THE LELAND STANFORD JUNIOR …, priority 2019, published 2023).
